According to US20250320281A1:

Experiments:
[1] = target: HIV-1 Env of isolate 92WR024 (subtype A) (HIV-1); test: cell-based or functional assay
[2] = target: HIV-1 Env of isolate 93UG077 (subtype A) (HIV-1); test: cell-based or functional assay
[3] = target: HIV-1 Env of isolate 94UG103 (subtype A) (HIV-1); test: cell-based or functional assay
[4] = target: HIV-1 envelope glycoprotein (Env) of isolate 93TH305 (HIV-1); test: cell-based or functional assay
[5] = target: HIV-1 envelope glycoprotein (Env) of isolate APV_13 (HIV-1); test: cell-based or functional assay
[6] = target: HIV-1 envelope glycoprotein (Env) of isolate APV_17 (HIV-1); test: cell-based or functional assay
[7] = target: HIV-1 envelope glycoprotein (Env) of isolate CAAN.A2 (HIV-1); test: cell-based or functional assay
JR-FL gp120 ΔV3 (HIV-1) = test: ELISA, antigen-coated wells
[8] = target: HIV-1 APV13 envelope glycoprotein (Env) on pseudovirus (HIV-1); test: cell-based or functional assay
[9] = target: HIV-1 MGRM-A-010 envelope glycoprotein (Env) on pseudovirus (HIV-1); test: cell-based or functional assay
[10] = target: HIV-1 MGRM-AG-005 envelope glycoprotein (Env) on pseudovirus (HIV-1); test: cell-based or functional assay
[11] = target: HIV-1 MGRM-C-027 envelope glycoprotein (Env) on pseudovirus (HIV-1); test: cell-based or functional assay
[12] = target: HIV-1 MGRM-D-001 envelope glycoprotein (Env) on pseudovirus (HIV-1); test: cell-based or functional assay
[13] = target: HIV-1 Env of isolate 92UG114 (clade D), on pseudovirus (HIV-1); test: cell-based or functional assay
[14] = target: HIV-1 Env of isolate APV6 (HIV-1); test: cell-based or functional assay
[15] = target: HIV-1 Env of isolate CAAN.A2 (HIV-1); test: cell-based or functional assay
[16] = target: HIV-1 Env of isolate MG RM-D-005 (clade D), on pseudovirus (HIV-1); test: cell-based or functional assay
[17] = target: HIV-1 Env of isolate MG RM-D-011 (clade D), on pseudovirus (HIV-1); test: cell-based or functional assay
[18] = target: HIV-1 Env of isolate MG RM-D-012 (clade D), on pseudovirus (HIV-1); test: cell-based or functional assay
[19] = target: HIV-1 Env of isolate MG RM-D-020 (clade D), on pseudovirus (HIV-1); test: cell-based or functional assay
[20] = target: HIV-1 Env of isolate MG RM-D-026 (clade D), on pseudovirus (HIV-1); test: cell-based or functional assay
[21] = target: HIV-1 Env of isolate MG RM-D-028 (clade D), on pseudovirus (HIV-1); test: cell-based or functional assay
[22] = target: HIV-1 Env of isolate MGRM-C-024 (clade C pseudovirus) (HIV-1); test: cell-based or functional assay
[23] = target: HIV-1 Env of isolate MGRM-C-025 (clade C pseudovirus) (HIV-1); test: cell-based or functional assay
[24] = target: HIV-1 Env of isolate MGRM-C-027 (clade C pseudovirus) (HIV-1); test: cell-based or functional assay
[25] = target: HIV-1 Env of isolate MGRM-Chronic-B-017 (HIV-1); test: cell-based or functional assay
[26] = target: HIV-1 Env of isolate MGRM-Chronic-B-018 (HIV-1); test: cell-based or functional assay
[27] = target: HIV-1 Env of isolate MGRM-F1-006 (clade F), on pseudovirus (HIV-1); test: cell-based or functional assay
[28] = target: HIV-1 Env of isolate MGRM-F1-012 (clade F), on pseudovirus (HIV-1); test: cell-based or functional assay
[29] = target: HIV-1 Env of isolate MGRM-F1-018 (clade F pseudovirus) (HIV-1); test: cell-based or functional assay
[30] = target: HIV-1 Env of pseudovirus 92UG031 (subtype A) (HIV-1); test: cell-based or functional assay
[31] = target: HIV-1 Env of pseudovirus 92WR009 (subtype A) (HIV-1); test: cell-based or functional assay
[32] = target: HIV-1 Env of pseudovirus 92WR020 (subtype A) (HIV-1); test: cell-based or functional assay
[33] = target: HIV-1 Env of pseudovirus 92WR024 (subtype A) (HIV-1); test: cell-based or functional assay
[34] = target: HIV-1 Env of pseudovirus 93WR029 (subtype A) (HIV-1); test: cell-based or functional assay
[35] = target: HIV-1 Env of pseudovirus MGRM-A-003 (subtype A) (HIV-1); test: cell-based or functional assay
[36] = target: HIV-1 Env of pseudovirus MGRM-A-005 (subtype A) (HIV-1); test: cell-based or functional assay
[37] = target: HIV-1 Env of pseudovirus MGRM-A-009 (subtype A) (HIV-1); test: cell-based or functional assay

Sequence of 4995_E20 (PGT-142) (antibody) (VH): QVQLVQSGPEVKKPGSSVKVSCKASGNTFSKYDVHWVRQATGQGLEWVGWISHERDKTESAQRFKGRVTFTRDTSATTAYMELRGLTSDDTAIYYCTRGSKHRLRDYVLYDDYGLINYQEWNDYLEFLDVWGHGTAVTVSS
Sequence of 4995_E20 (PGT-142) (antibody) (VL): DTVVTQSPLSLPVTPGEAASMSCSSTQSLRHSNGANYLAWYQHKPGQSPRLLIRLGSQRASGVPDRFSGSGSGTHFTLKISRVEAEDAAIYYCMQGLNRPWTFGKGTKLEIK
Sequence of 5329_C19 (PGT-136) (antibody) (VH): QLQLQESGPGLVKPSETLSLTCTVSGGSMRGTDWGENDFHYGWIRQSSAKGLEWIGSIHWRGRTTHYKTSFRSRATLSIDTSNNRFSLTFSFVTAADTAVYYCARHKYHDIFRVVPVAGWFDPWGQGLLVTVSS
Sequence of 5329_C19 (PGT-136) (antibody) (VL): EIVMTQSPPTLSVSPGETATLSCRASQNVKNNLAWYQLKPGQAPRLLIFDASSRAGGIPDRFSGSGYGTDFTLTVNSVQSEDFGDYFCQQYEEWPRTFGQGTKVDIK
Sequence of 5345_I01 (PGT-137) (antibody) (VH): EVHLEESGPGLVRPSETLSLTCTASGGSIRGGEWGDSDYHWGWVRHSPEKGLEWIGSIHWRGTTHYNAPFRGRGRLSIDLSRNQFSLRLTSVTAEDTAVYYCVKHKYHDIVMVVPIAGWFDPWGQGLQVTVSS
Sequence of 5345_I01 (PGT-137) (antibody) (VL): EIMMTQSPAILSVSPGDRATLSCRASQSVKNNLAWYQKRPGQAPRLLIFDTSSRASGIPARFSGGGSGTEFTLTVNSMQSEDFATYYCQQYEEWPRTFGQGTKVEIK

## 4995_E20 (PGT-142) (antibody)
[1]
  IC50 (µg/mL), pseudovirus neutralization: 0.069 µg/mL
[2]
  IC50 (µg/mL), pseudovirus neutralization: > 50 µg/mL
[3]
  IC50 (µg/mL), pseudovirus neutralization: > 50 µg/mL
[4]
  IC50 (µg/mL), pseudovirus neutralization: 5.86 µg/mL
[5]
  IC50 (µg/mL), pseudovirus neutralization: > 50 µg/mL
[6]
  IC50 (µg/mL), pseudovirus neutralization: 0.628 µg/mL
[7]
  IC50 (µg/mL), pseudovirus neutralization: > 50 µg/mL

## 5114_A19 (PGT-128) (antibody)
JR-FL gp120 ΔV3 (HIV-1)
  EC50: 7.8 mg/L

## 5141_B17 (PGT-126) (antibody)
[8]
  IC50, pseudovirus neutralization: 0.012 mg/L
  IC80 (pseudovirus neutralization): 0.0411 mg/L
  IC90 (pseudovirus neutralization): 0.084 mg/L
  IC95 (pseudovirus neutralization): 0.162 mg/L
[9]
  IC50, pseudovirus neutralization: 0.0033 mg/L
  IC80 (pseudovirus neutralization): 0.0137 mg/L
  IC90 (pseudovirus neutralization): 0.0316 mg/L
  IC95 (pseudovirus neutralization): 0.0687 mg/L
[10]
  IC50, pseudovirus neutralization: 1.35 mg/L
  IC80 (pseudovirus neutralization): > 10 mg/L
  IC90 (pseudovirus neutralization): > 10 mg/L
  IC95 (pseudovirus neutralization): > 10 mg/L
[11]
  IC50, pseudovirus neutralization: 1.14 mg/L
  IC80 (pseudovirus neutralization): > 10 mg/L
  IC90 (pseudovirus neutralization): > 10 mg/L
  IC95 (pseudovirus neutralization): > 10 mg/L
[12]
  IC50, pseudovirus neutralization: 0.0639 mg/L
  IC80 (pseudovirus neutralization): 0.333 mg/L
  IC90 (pseudovirus neutralization): 0.832 mg/L
  IC95 (pseudovirus neutralization): 1.8 mg/L

## 5329_C19 (PGT-136) (antibody)
JR-FL gp120 ΔV3 (HIV-1)
  EC50: 0.1 mg/L

## 5343_B08 (PGT-135) (antibody)
JR-FL gp120 ΔV3 (HIV-1)
  EC50: 0.2 mg/L

## 5345_I01 (PGT-137) (antibody)
JR-FL gp120 ΔV3 (HIV-1)
  EC50: 0.1 mg/L

## PGV04 (antibody)
[13]
  IC50 (µg/mL), pseudovirus neutralization: 0.461 µg/mL
[14]
  IC50 (µg/mL), pseudovirus neutralization: 24.2 µg/mL
[15]
  IC50 (µg/mL), pseudovirus neutralization: 2.26 µg/mL
[16]
  IC50 (µg/mL), pseudovirus neutralization: > 50 µg/mL
[17]
  IC50 (µg/mL), pseudovirus neutralization: 0.025 µg/mL
[18]
  IC50 (µg/mL), pseudovirus neutralization: 0.125 µg/mL
[19]
  IC50 (µg/mL), pseudovirus neutralization: 0.097 µg/mL
[20]
  IC50 (µg/mL), pseudovirus neutralization: 1.76 µg/mL
[21]
  IC50 (µg/mL), pseudovirus neutralization: 1.01 µg/mL
[22]
  IC50 (µg/mL), pseudovirus neutralization: > 50 µg/mL
[23]
  IC50 (µg/mL), pseudovirus neutralization: > 50 µg/mL
[24]
  IC50 (µg/mL), pseudovirus neutralization: 2.76 µg/mL
[25]
  IC50 (µg/mL), pseudovirus neutralization: 0.129 µg/mL
[26]
  IC50 (µg/mL), pseudovirus neutralization: 0.164 µg/mL
[27]
  IC50 (µg/mL), pseudovirus neutralization: > 50 µg/mL
[28]
  IC50 (µg/mL), pseudovirus neutralization: 0.25 µg/mL
[29]
  IC50 (µg/mL), pseudovirus neutralization: 0.027 µg/mL
[30]
  IC50, pseudovirus neutralization: 4.46 mg/L
[31]
  IC50, pseudovirus neutralization: 0.108 mg/L
[32]
  IC50, pseudovirus neutralization: 0.055 mg/L
[33]
  IC50, pseudovirus neutralization: 0.31 mg/L
[34]
  IC50, pseudovirus neutralization: 0.54 mg/L
[35]
  IC50, pseudovirus neutralization: 0.128 mg/L
[36]
  IC50, pseudovirus neutralization: 0.134 mg/L
[37]
  IC50, pseudovirus neutralization: 0.033 mg/L

## VRC01 (antibody)
[1]
  IC50 (µg/mL), pseudovirus neutralization: 0.327 µg/mL
[2]
  IC50 (µg/mL), pseudovirus neutralization: 0.097 µg/mL
[3]
  IC50 (µg/mL), pseudovirus neutralization: 0.285 µg/mL
[4]
  IC50 (µg/mL), pseudovirus neutralization: 0.243 µg/mL
[5]
  IC50 (µg/mL), pseudovirus neutralization: 0.657 µg/mL
[6]
  IC50 (µg/mL), pseudovirus neutralization: 0.477 µg/mL
[7]
  IC50 (µg/mL), pseudovirus neutralization: 0.722 µg/mL
